Data on 19 substances can be found in patent US8722850B2, “Self-assembling peptides and their use in the formation of hydrogels” (Universita' Degli Studi di Milano Bicocca, priority 2010, dated 2014).

Data set [1] can be described thus: Macro-scale scaffold formation upon exposure to PBS / neutral pH buffer. Format: physicochemical. The settings on record: upon exposure to PBS (1×) / neutral pH buffer. An excerpt: The tested peptides solutions appearance ranged from peptides giving clear liquid is solutions (e.g. 4, B15, B19, B25, B28, 30) to samples which become opaque in 1 to 7 days after dissolution (e.g. B3, B17, B22, B24, B27, 31) as shown in FIG. 2a (I). Most of the liquid solutions increased in viscosity over the first week after dissolution, however after ten days in water no appreciable changes happened at the macroscale.
Nonetheless, keeping constant the observation time, the storage moduli of peptide solutions previously dissolved (the day before) at 3% w/v were measured. Measurements were obtained of these peptide solutions, further diluted to 1% w/v at the same day of the experiment (unless otherwise specified), and, after addition of PBS, of the formed scaffolds.

In data set [2] the test system is human Neural Stem Cells (hNSCs). Kind of data set: Phase contrast imaging of hNSC morphology on scaffolds. Format: cell-based. The settings on record: 7 days in vitro. The procedure:
In vitro tests were performed following a previously adopted methodology (5). Briefly, cells (at a concentration of 6×10^4 cells/cm^2) were seeded on the top-surface of each assembled scaffold previously assembled into 96 multiwells. Initially, cells were cultured with basal medium supplemented with βFGF (10 ng/ml), added to enhance neuronal progeny differentiation. At 3 days in vitro (DIV), βFGF medium was replaced with Leukemia Inhibitory Factor (LIF, Chemicon) (20 ng/ml) and Brain Derived Neurotrophic Factor (BDNF, Peprotech) (20 ng/ml). Fresh medium was added every three days. Positive and negative controls consisted of CULTREX-BME® substrate (R&D systems) (1:100 dilution in basal medium) and untreated bottom well surfaces respectively.
To assess the potential of the proposed SAPs for cell cultures and, more generally, for regenerative medicine, a two-dimensional cell culture protocol already developed for RADA16-I-like peptides was adapted (5). Briefly, human Neural Stem Cells (hNSCs), mechanically dissociated 1 day before plating, were seeded and cultured for one week in vitro over self-assembled scaffolds of B3, 4, B15, B17, B19, B22, B24, B25, B27, B28, 30, 31 and over non-coated tissue culture plastic wells (negative control).

Data set [3] is described as follows: Self-healing tests of assembled scaffolds after mechanical rupture. Format: physicochemical. The settings on record: recovery of scaffold stiffness after mechanical rupture. On the procedure:
Rheological properties were determined for the peptides of the invention, using a controlled stress TA Instruments AR-2000ex rheometer (TAInstruments). A cone-and-plate geometry (acrylic cone diameter, 20 mm; angle, 1°; truncation gap 34 μm) was used. All measurements were obtained at a constant monitored temperature of 25° C. Preliminary strain sweeps were performed for each sample to define the linear viscoelastic region, thus ensuring that moduli were independent of strain. Time sweeps, after addition of PBS (1×) were recorded at constant angular frequency (ω=1 Hz). Frequency sweeps, both for peptide water solutions and for self-assembled scaffolds, were performed with the instrument in oscillatory mode at controlled strain of 1%. Final: onset point of rupture was calculated by linear interpolation and subsequent determination of the intersection of the G′ modes in the linear region and at material rupture respectively. G′ values were averaged in the 1-100 Hz region and between n=3 independent replicates. During self-healing tests the self-assembled scaffold was torn by applying a strain sweep (0.01%-1000% strain range) at 1 Hz oscillatory frequency. G′ values were is recorded in frequency sweep mode (at 1% strain) or, in time sweep mode (at 1 Hz and at 1% strain), before and after the strain sweep step, subsequent observations were performed every half hour or, in case of time sweep test, every 30 seconds. In all of the SAPs the difference between the storage moduli measured before and after PBS addition spanned from two to four orders of magnitude, proving the dramatic biomechanical changes taking place during scaffold gelation. Peptide B3 (1%) yielded a solid stiff scaffold (G′=2917 Pa), supporting the idea that ionic charges may screen the electrostatic repulsions given by positively charged lysine residues and speed up the spontaneous ongoing self-assembling process, on its turn giving an already viscous (G′=67 Pa) and opaque solution at day 1. Among the peptides giving soft scaffold (100 Pa-1000 Pa range) peptides 4, B19, B25, B28 and 30 were included. On the opposite side, SAPs yielding solid stiff scaffolds are B15, B22, B24, B27 and 31 (5000 Pa-9000 Pa range).
Solid scaffolds were obtained via addition of PBS (1×) in a cone-and-plate rheometer; we measured the storage modulus, the samples were subjected to a strain sweep (0.01% to 1000%) until and far beyond rupture occurred (i.e. is monitoring the sudden drop of G′ value). Samples were then left in place (keeping them hydrated with PBS) and their G′ were measured every 30 minutes via frequency sweep tests in the range of 0.1 Hz to 60 Hz. As a negative control KLD-12, a well-known SAP, was tested (4, 6). […] In FIG. 6b peptide B25 (3% w/v concentration) was assessed for self-healing in a time sweep mode, every 30 seconds, at 1 Hz and at 1% strain. Values of G′ recovered after 100 minutes (1000 Pa) and steadily plateaued over time. For peptides B3, B22, B25 and B27 full recovery was obtained at different time intervals after rupture, ranging from 60′ to 240′. Similar results were confirmed by multiple independent experiments, but at different time ranges, for all of the self-assembling peptides except for B19 and B28.
Samples were checked for rupture by tilting. After a maximum of four hours all of the samples returned to their solidified gel appearance. This healing could be repeated at will.

“Also recorded” adds a separate entry of the source. The star is where a group is joined. Biotin = O=C1N[C@H]2[C@H](CS[C@H]2CCCCC(=O)*)N1

On to “Ac-F-GGG-AFASTKT-GIKVAV-CONH2 (Ac-FGGGAFASTKTGIKVAV-NH2) [compound 59]”, for which the “solid scaffold / hydrogel formation” value in data set [1] is listed as “yielded solid scaffolds”.

In the case of “Ac-F-GGG-AFSSTKT-CONH2 (Ac-FGGGAFSSTKT-NH2) [compound 61]”, the “solid scaffold / hydrogel formation” value in data set [1] was “yielded solid scaffolds”. Still for that read-out and setting: the value for “Ac-FGGG-PFSSTKT-CONH2 (Ac-FGGGPFSSTKT-NH2) [compound 37]” was “yielded solid scaffolds”; that for “Ac-GGGPFSSTKT-CONH2 (Ac-GGGPFSSTKT-NH2) [peptide 2, biotin-deleted version of B3 that formed no scaffold]” was “prevented any scaffold formation”. Take “Ac-WGGGAFASTKT-CONH2 (Ac-WGGGAFASTKT-NH2) [compound 30]”: in data set [1], the “solid scaffold / hydrogel formation” value is on record as “yielded solid scaffolds”. Moreover, the “cell morphology / degree of spreading” value in data set [2] is recorded as “single spherical cells”.

For “Ac-Y-GGG-PFSSTKT-CONH2 (Ac-YGGGPFSSTKT-NH2) [peptide 60]”, the “solid scaffold / hydrogel formation” value in data set [1] is given as “yielded solid scaffolds”.

With “Biot-GGGGGPFSSTKT-CONH2 (Biotin-GGGGGPFSSTKT-NH2; SMILES C[C@@H](O)[C@H](NC(=O)[C@H](CCCCN)NC(=O)[C@@H](NC(=O)[C@H](CO)NC(=O)[C@H](CO)NC(=O)[C@H](Cc1ccccc1)NC(=O)[C@@H]1CCCN1C(=O)CNC(=O)CNC(=O)CNC(=O)CNC(=O)CNC(=O)CCCC[C@@H]1SC[C@@H]2NC(=O)N[C@@H]21)[C@@H](C)O)C(N)=O) [peptide B25]”, the “solid scaffold / hydrogel formation” value in data set [1] was “yielded solid scaffolds”. Moreover, the self-healing property result in data set [3] is “self-healing property has been seen”. Take “Biot-GGGKFSSTPT-CONH2 (Biotin-GGGKFSSTPT-NH2; SMILES C[C@@H](O)[C@H](NC(=O)[C@@H]1CCCN1C(=O)[C@@H](NC(=O)[C@H](CO)NC(=O)[C@H](CO)NC(=O)[C@H](Cc1ccccc1)NC(=O)[C@H](CCCCN)NC(=O)CNC(=O)CNC(=O)CNC(=O)CCCC[C@@H]1SC[C@@H]2NC(=O)N[C@@H]21)[C@@H](C)O)C(N)=O) [B64]”: in data set [1], the “solid scaffold / hydrogel formation” value is recorded as “yielded solid scaffolds; also recorded: self-assembled giving a hydrogel upon exposure to PBS”.

“Biot-GGGPFSETKT-CONH2 (Biotin-GGGPFSETKT-NH2; SMILES C[C@@H](O)[C@H](NC(=O)[C@H](CCCCN)NC(=O)[C@@H](NC(=O)[C@H](CCC(=O)O)NC(=O)[C@H](CO)NC(=O)[C@H](Cc1ccccc1)NC(=O)[C@@H]1CCCN1C(=O)CNC(=O)CNC(=O)CNC(=O)CCCC[C@@H]1SC[C@@H]2NC(=O)N[C@@H]21)[C@@H](C)O)C(N)=O) [peptide B17]”: the “solid scaffold / hydrogel formation” value in data set [1] is “yielded solid scaffolds”. The “cell morphology / degree of spreading” value in data set [2] was “proliferated cell clusters”. For the same substance, the self-healing property result in data set [3] was “self-healing property has been seen”. Turning to “Biot-GGGPFSSKTT-CONH2 (Biotin-GGGPFSSKTT-NH2; SMILES C[C@@H](O)[C@H](NC(=O)[C@@H](NC(=O)[C@H](CCCCN)NC(=O)[C@H](CO)NC(=O)[C@H](CO)NC(=O)[C@H](Cc1ccccc1)NC(=O)[C@@H]1CCCN1C(=O)CNC(=O)CNC(=O)CNC(=O)CCCC[C@@H]1SC[C@@H]2NC(=O)N[C@@H]21)[C@@H](C)O)C(N)=O) [B66]”, the “solid scaffold / hydrogel formation” value in data set [1] is recorded as “self-assembled giving a hydrogel upon exposure to PBS”. Turning to “Biot-GGGPFSSTTK-CONH2 (Biotin-GGGPFSSTTK-NH2; SMILES C[C@@H](O)[C@H](NC(=O)[C@H](CO)NC(=O)[C@H](CO)NC(=O)[C@H](Cc1ccccc1)NC(=O)[C@@H]1CCCN1C(=O)CNC(=O)CNC(=O)CNC(=O)CCCC[C@@H]1SC[C@@H]2NC(=O)N[C@@H]21)C(=O)N[C@H](C(=O)N[C@@H](CCCCN)C(N)=O)[C@@H](C)O) [B67]”, the “solid scaffold / hydrogel formation” value in data set [1] is “self-assembled giving a hydrogel upon exposure to PBS”. As to “Biot-GGGPKSSTFT-CONH2 (Biotin-GGGPKSSTFT-NH2; SMILES C[C@@H](O)[C@H](NC(=O)[C@H](Cc1ccccc1)NC(=O)[C@@H](NC(=O)[C@H](CO)NC(=O)[C@H](CO)NC(=O)[C@H](CCCCN)NC(=O)[C@@H]1CCCN1C(=O)CNC(=O)CNC(=O)CNC(=O)CCCC[C@@H]1SC[C@@H]2NC(=O)N[C@@H]21)[C@@H](C)O)C(N)=O) [B65]”, the “solid scaffold / hydrogel formation” value in data set [1] is given as “yielded solid scaffolds; also recorded: self-assembled giving a hydrogel upon exposure to PBS”.

With “Biot-GGGPWSSTKT-CONH2 (Biotin-GGGPWSSTKT-NH2; SMILES C[C@@H](O)[C@H](NC(=O)[C@H](CCCCN)NC(=O)[C@@H](NC(=O)[C@H](CO)NC(=O)[C@H](CO)NC(=O)[C@H](Cc1c[nH]c2ccccc12)NC(=O)[C@@H]1CCCN1C(=O)CNC(=O)CNC(=O)CNC(=O)CCCC[C@@H]1SC[C@@H]2NC(=O)N[C@@H]21)[C@@H](C)O)C(N)=O) [B27]”, the “solid scaffold / hydrogel formation” value in data set [1] is listed as “yielded solid scaffolds”. Also, the self-healing property result in data set [3] was “self-healing property has been seen”.

With “Biot-PFSSTKT-CONH2 (Biotin-PFSSTKT-NH2; SMILES C[C@@H](O)[C@H](NC(=O)[C@H](CCCCN)NC(=O)[C@@H](NC(=O)[C@H](CO)NC(=O)[C@H](CO)NC(=O)[C@H](Cc1ccccc1)NC(=O)[C@@H]1CCCN1C(=O)CCCC[C@@H]1SC[C@@H]2NC(=O)N[C@@H]21)[C@@H](C)O)C(N)=O) [peptide B7, non-assembling control peptide]”, the “solid scaffold / hydrogel formation” value in data set [1] is on record as “not give a solid scaffold”.

With Biotin-G-AFASTKT-CONH2 [B50], the “solid scaffold / hydrogel formation” value in data set [1] was “yielded solid scaffolds”. Same read-out and setting: then Biotin-GGGAFASTKA-NH2 [B33], with “yielded solid scaffolds”; and Biotin-GGGAWASTKT-NH2 [B32], with “yielded solid scaffolds”; and Biotin-GGGGG-AFASTKT-CONH2 [B51], with “yielded solid scaffolds”.

For Biotin-GGGPFSSTKTP-NH2 [B34], in data set [1], the “solid scaffold / hydrogel formation” value was “yielded solid scaffolds”.
